Tests used:
[1] = test system: capsaicin induced acute pain-related behavior in mice; assay: Intraplantar capsaicin model of acute nociception; type: in vivo, mouse; conditions: male mice; SP163M 2 μg/g s.c. or EI-tPA 2 μg/g i.v. 1 h before capsaicin
Procedure: For the capsaicin studies, male (n=41) and female (n=37) mice were acclimated to the behavior testing facility for at least 1 h. Capsaicin was dissolved in 20% (2-hydroxypropyl)-β-cyclodextrin (Sigma-Aldrich, St. Louis, MO, USA) solution. […] Subsequently, 10 μl of 2 μg/μl capsaicin solution was injected into the plantar area of left hind paw. Immediately after capsaicin injection, mice were placed in a plexiglass box. Two observers, blinded to treatments, recorded the time spent licking and flinching the left hind paw over 10 min.

[2] = test system: phospho-ERK1/2; assay: Cell signaling analysis in PC12 cells, immunoblot of phospho-ERK1/2; type: cell-based, rat; conditions: 48 h after transfection
Procedure: Cell signaling analysis: Rat PC12 cells were purchased from ATCC (CRL-1721). PC12 cells were maintained in high glucose DMEM (Gibco, USA) containing 10% heat-inactivated FBS (Gibco, USA), 5% HyClone heat-inactivated horse serum (Cytiva, USA), penicillin (100 units/ml) and streptomycin ([…]) in 6-well plates that were pre-coated with 0.01 mg/ml type IV collagen (Sigma-Aldrich, St. Louis, MO, USA). Cells were transferred to serum-free medium (SFM) 4 h prior to adding effectors, and then treated with SP163M (2.4, 24 or 240 nM); EI-tPA (12 nM), NGF (0.36 nM), or vehicle (PBS) for 10 min. In some cases, cells were pre-incubated with the competitive antagonist of LRP1, GST-RAP (150 nM) for 15 min or electroporated using the Rat Neuron Nucleofector Amaxa Kit (Lonza Biosciences) and incubated with siRNA to silence LRP1 expression (siLRP1; M-094191-01-0010, Dharmacon) for 48 h. Control cells were transfected with non-targeting control (NTC) siRNA (NTC; D-001810-10-05, Dharmacon). […] Equal amounts of protein from cell lysates (20 μg), as determined by BCA Protein Assay (ThermoFisher Scientific, Waltham, MA, USA), were subjected to 10% SDS-PAGE and electro-transferred to nitrocellulose membranes. […]

B1: EI-tPA: Recombinant human enzymatically inactive tissue-type plasminogen activator, known LRP1 agonist (protein)
chain: SYQVICRDEKTQMIYQQHQSWLRPVLRSNRVEYCWCNSGRAQCHSVPVKSCSEPRCFNGGTCQQALYFSDFVCQCPEGFAGKCCEIDTRATCYEDQGISYRGTWSTAESGAECTNWNSSALAQKPYSGRRPDAIRLGLGNHNYCRNPDRDSKPWCYVFKAGKYSSEFCSTPACSEGNSDCYFGNGSAYRGTHSLTESGASCLPWNSMILIGKVYTAQNPSAQALGLGKHNYCRNPDGDAKPWCHVLKNRRLTWEYCDVPSCSTCGLRQYSQPQFRIKGGLFADIASHPWQAAIFAKHRRSPGERFLCGGILISSCWILSAAHCFQERFPPHHLTVILGRTYRVVPGEEEQKFEVEKYIVHKEFDDDTYDNDIALLQLKSDSSRCAQESSVVRTVCLPPADLQLPDWTECELSGYGKHEALSPFYSERLKEAHVRLYPSSRCTSQHLLNRTVTDNMLCAGDTRSGGPQANLHDACQGDSGGPLVCLNDGRMTLVGIISWGLGCGQKDVPGVYTKVTNYLDWIRDNMRP
- capsaicin induced acute pain-related behavior (time spent licking over 10 min) [1]: blocked the capsaicin induced acute pain-related behavior
- activation of ERK1/2 in cells transfected with LRP1-specific siRNA [2]: ERK1/2 was not activated
- activation of ERK1/2 in cells transfected with NTC siRNA [2]: robustly activated ERK1/2
